From paper PMC11367332, “Neutralizing IL-38 activates γδ T cell-dependent antitumor immunity and sensitizes for chemotherapy” (Journal for Immunotherapy of Cancer, 2024)

Key:
Assay type in all cases: cell-based, mouse
cDC1 = cDC1 migration, Boyden chamber assay; conditions: supernatants of γδ T cells pretreated with IL-38, 2 hours
Method: Boyden chamber assays were performed using a 96 well-plate with 4.26 mm transwell inserts with 5.0 µm pore polycarbonate membrane (Corning). Briefly, 1.4×10^4 DC-enriched murine splenocytes (EasySep Mouse Pan-DC Enrichment Kit II, STEMCELL Technologies) were suspended in serum-free RPMI 1640 medium and added to transwell inserts. Supernatants collected after 24 hours of γδ T cells stimulation (described above) were pre-incubated with either 15 µg/mL IgG isotype control (R&D Systems) or 15 µg/mL anti-Xcl1 (R&D Systems) and added to the bottom compartment. Cells were harvested 2 hours later and migrated and non-migrated cells were analyzed by FACS. The percentage of migrated cDC1 was determined by the ratio of migrated/non-migrated cells.

splenic γδ T cells = test: γδ T cell / CD8+ T cell culture with recombinant IL-38; conditions: 100 ng/mL daily, day 5, cytometric bead array
Method: γδ T cells and CD8+ T cells were isolated from murine spleens by fluorescence-activated cell sorting (FACS) and co-cultured at a ratio of 1:10. The cells were cultured in T-cell medium Roswell Park Memorial Institute (RPMI) 1640 with 5 mM glutamine, 100 U/mL penicillin, 100 µg/mL streptomycin, 10% heat-inactivated fetal calf serum (FCS), 1% non-essential and essential amino acids, 1% sodium pyruvate and 1% 4-(2-hydroxyethyl)-1-piperazineethanesulfonic acid (HEPES) followed by activation with mouse T-cell activator CD3/CD28 Dynabeads (Thermo Fisher Scientific), 10 ng/mL of recombinant murine (rm) IL-23 and rm IL-1β (both from Bio-Techne). Cells were supplemented with 10 ng/mL rm IL-2 (PrepoTech) at days 0, 2 and 5 and daily with 100 ng/mL rm IL-38 (AdipoGen) and 50 μM β-mercaptoethanol. Cells were cultured for up to 5 days. At the endpoint, supernatants were collected for cytokine determination and cell proliferation was analyzed by flow cytometry.
To measure the cytokines in PyMT tumors and cell culture supernatants, Cytometric Bead Array Flex Sets (BD Biosciences) were used for murine IL-17A and IFN-γ. The samples were acquired via FACS and analyzed with FlowJo Software V.10 (Tree Star).

γδ T cells = test: Xcl1 production by activated γδ T cells (ELISA); conditions: 100 ng/mL, 24 hours
Method: γδ T cells isolated from murine spleen were cultured in T-cell medium, activated with mouse T-cell activator CD3/CD28 Dynabeads (Thermo Fisher Scientific), except for the negative control, and supplemented with 10 ng/mL rm IL-2 (PrepoTech), 100 ng/mL rm IL-38 (AdipoGen) and […] β-mercaptoethanol. Supernatants were collected 24 hours after seeding for the determination of Xcl1 levels.
Xcl1 levels were determined from supernatants collected from γδ T-cell cultures using Mouse Xcl1/Lymphotactin DuoSet ELISA Kit (R&D Systems) according to the manufacturer’s instructions.

B1: recombinant IL-38: recombinant murine IL-38 (AdipoGen) (protein)
chain: MCSLPMARYYIIKDAHQKALYTRNGQLLLGDPDSDNYSPEKVCILPNRGLDRSKVPIFLGMQGGSCCLACVKTREGPLLQLEDVNIEDLYKGGEQTTRFTFFQRSLGSAFRLEAAACPGWFLCGPAEPQQPVQLTKESEPSTHTEFYFEMSR
cDC1 migration towards γδ T-cell supernatants (cDC1): reduced | IFN-γ secretion in γδ T cell / CD8+ T cell co-culture (splenic γδ T cells): limited the secretion of IFN-γ | IL-17 production by splenic γδ T cells (splenic γδ T cells): effectively suppressed IL-17 production | Xcl1 levels on γδ TCR-dependent activation (γδ T cells): suppressed
